Experimental data as given in publication PMC6639331, “Reconstitution of recombinant human CCR4-NOT reveals molecular insights into regulated deadenylation”.

B1: 7-mer-A20 (ssRNA)
RNA: UCUAAAUAAAAAAAAAAAAAAAAAAAA
B2: 13+7-mer-A20 (ssRNA)
RNA: CACAUCCAACUUCUCUAAAUAAAAAAAAAAAAAAAAAAAA
B3: poly(U)30 (ssRNA)
RNA: UUUUUUUUUUUUUUUUUUUUUUUUUUUUUU

Columns and labels:
[1] = biological target: T1, CCR4-NOT FULL (CCR4a E240A:CAF1 D40A) (Homo sapiens, UniProt A5YKK6;Q9NZN8;O75175;Q92600;Q9ULM6;Q9UIV1;Q9H9A5;Q9UKZ1 …, E240A;D40A); assay: EMSA; 1 uM protein, 100 nM RNA; EMSA: 20 mM Tris/HCl pH 7.5, 10 mM NaCl, 2 mM MgCl2, 0.1% BSA, 0.1% Orange G, 3% Ficoll 400; 100 nM RNA; 10% native PAGE in TBE pH 8.3; temperature not stated; conditions: protein: recombinant; tags: NOT1 N-His10 and C-StrepII x2; other tags removed; copies: 1;1;1;1;1;1;1;1; label: 5' 6-FAM
[2] = biological target: T1, CCR4-NOT FULL (CCR4a E240A:CAF1 D40A); assay: EMSA; 1 uM protein, 100 nM RNA; preferred; EMSA: 20 mM Tris/HCl pH 7.5, 10 mM NaCl, 2 mM MgCl2, 0.1% BSA, 0.1% Orange G, 3% Ficoll 400; 100 nM RNA; 10% native PAGE in TBE pH 8.3; temperature not stated; conditions: protein: recombinant; tags: NOT1 N-His10 and C-StrepII x2; other tags removed; copies: 1;1;1;1;1;1;1;1; label: labeled

| Binder | binding result [1] | binding result [2] |
| --- | --- | --- |
| B1 | binds |  |
| B2 | binds |  |
| B3 |  | binds |
